Biological target: purified RSV F glycoprotein (respiratory syncytial virus)
Test: ELISA on purified F glycoprotein, control Fab
Conditions: scale: reciprocal dilution

purified RSV F glycoprotein (respiratory syncytial virus), sequence (P12568 26-109, chain 1 of 2): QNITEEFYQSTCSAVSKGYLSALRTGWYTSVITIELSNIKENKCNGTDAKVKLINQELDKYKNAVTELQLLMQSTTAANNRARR
purified RSV F glycoprotein (respiratory syncytial virus), sequence (P12568 137-574, chain 2 of 2): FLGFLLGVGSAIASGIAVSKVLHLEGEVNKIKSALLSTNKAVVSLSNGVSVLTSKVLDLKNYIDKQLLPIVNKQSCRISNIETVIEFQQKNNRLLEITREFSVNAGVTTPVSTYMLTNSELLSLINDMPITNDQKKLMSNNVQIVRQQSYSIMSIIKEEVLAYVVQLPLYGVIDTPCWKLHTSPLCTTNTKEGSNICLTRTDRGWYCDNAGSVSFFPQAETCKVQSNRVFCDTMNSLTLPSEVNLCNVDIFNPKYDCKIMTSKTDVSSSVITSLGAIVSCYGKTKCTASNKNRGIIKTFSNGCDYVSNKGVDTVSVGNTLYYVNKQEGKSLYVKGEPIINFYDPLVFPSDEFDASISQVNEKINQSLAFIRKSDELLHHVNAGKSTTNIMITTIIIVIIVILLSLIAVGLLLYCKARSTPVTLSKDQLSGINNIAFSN

## hepatitis B Fab
  ELISA titer: 2

— patent US20040005324A1
